# Measurements as given in patent US20120190612A1, “METHODS OF TREATMENT” (CRC FOR ASTHMA AND AIRWAYS LTD., priority 2009, published 2012).
# Legend:
# [1] = test system: lung adenocarcinoma cells (LNM35 AAV-GFP); experiment: Mouse ear tumour plug model of tumour-induced lymphangiogenesis; assay type: in vivo
# Protocol: A mouse ear tumour plug model was utilized in which green fluorescent protein (GFP)-tagged lung adenocarcinoma cells (LNM35 AAV-GFP) were injected between the two layers of skin of the ears of NOD/SCID mice. 1×10^6 tumour cells were embedded in […] growth factor free Matrigel® medium enriched with vehicle (1 nM EDTA, pH3.0) or lamstatin at either 10 μg/mL or 100 μg/mL. Mice were divided into three groups.
# Group 1 (n=9): One ear of each mouse injected with tumour cells+10 μg/mL lamstatin; the other ear injected with tumour cells+vehicle control. Group 2 (n=9): One ear of each mouse injected with tumour cells+100 μg/mL lamstatin; the other ear injected with tumour cells+vehicle control. Group 3 (n=3): Each ear injected with Matrigel® only.
# Injections were single shots such that at least 25 μL was injected. 12 days after injection were sacrificed by anesthetisation and cervical dislocation. Ears were removed for whole mount staining. Flaps of skin from each ear were carefully separated, fixed and stained for either the lymphatic endothelial cell specific marker LyVe-1 (rabbit polyclonal anti-LyVe-1 antibody detected using anti-rabbit Alexafluor 647) or the vascular endothelial cell specific marker PECAM (CD31 rat anti-mouse antibody clone MEC13.3 (Pharmingen), detected with […]). Tumour cells were visualised by detection of GFP expression. Images of representative regions of ears were obtained using a confocal microscope and LyVe-1 or PECAM staining was quantified.
# Using the LyVe-1 whole mount stained mouse ear sections, the inventors further investigated the morphology of lymphatic vessel formation. Specifically confocal images were loaded into Image J software (www.sbweb.nih.gov/ij/), a 5×5 grid overlayed and vessels examined for branching and looping. The functionality of a lymphatic network is based on its maturity and in general it is accepted that a tumour induces a rather immature network formation. Reconnecting vessels (measured as loops) and increased branching (measured as branches) are signs of immature vessels induced by, for example, a tumour (see for example Shayan et al. Growth Factors 25, 417-425, 2007).
# Branches were defined as two clearly distinguishable vessels that separate out without rejoining. Loops were defined as small, circular vessel structures in the same focal plane. Branches or loops were counted separately per image and mean values were calculated for each treatment group.
# HMVEC-LLy cells [2] = experiment: Migration towards a VEGF-D gradient (FluoroBlok transwell); assay type: cell-based, human; settings: 24 hrs, n=1; VEGFD alone 42.000 RFU
# Protocol: FluoroBlok BioCoat 24-well inserts (BD Bioscience) were seeded with 4×10^4 HMVEC-LLy cells in 750 μL DMEM with 0.1% BSA, 1% antibiotics and 25 mM HEPES and incubated for 1 hr. The bottom well was filled with 500 μL medium (as described above) with or without 10 ng/mL VEGF-D (R&D Systems) as well as various concentrations of lamstatin, tumstatin, CP17 or vehicle. Additionally, top wells were loaded with inhibitors to match the bottom well concentration. According to manufacturer's instructions cells were allowed to migrate for 24 hrs before bottom media was removed. Thereafter the underside of the transwell with the migrated cells was washed twice with HANKS buffer and placed in a 4 μg/mL calcein (HANKS) solution for 90 min at 37° C. Signal was read with a bottom read fluorescence microplate reader at 485/515 nm (excitation/emission).
# HMVEC-LLy cells [3] = experiment: Real-time impedance (xCellgenix) cell attachment and proliferation; assay type: cell-based, human
# Protocol: HMVEC-LLy cells were treated with lamstatin and cell attachment and proliferation were measured in realtime using the xCellgenix system (Roche). This system measures a cell index factor, representing impedance mediated by cells. Gold electrodes on the well bottom measure this impedance and the more cells attach to the bottom the higher the impedance (cell index). This measurement allows for detecting early events after treatment such as detachment (e.g. through cell death) or inhibition of proliferation and reduction of cell number.
# A Xcellgenix gold coated microtiter plate was seeded with 5×10^3 cells (HMVEC-LLy) per well and incubated in 100 μL complete EBM-2 for 24 hrs prior to treatment. In fresh media, serial dilutions of lamstatin or vehicle (1 nM EDTA, pH 3.0) were prepared. Cell culture supernatant was removed and replaced by 100 μL fresh serially diluted lamstatin. The plate was locked into the Xcellgenix recorder and a signal of impedance recorded at 5 min intervals for 6 hrs, and subsequently every 60 min.
# LAM nodule cells = experiment: MTT cell viability assay, LAM nodule cells; assay type: cell-based; settings: intermediate layer, centre and outer nodule cells, 72 hrs
# Protocol: To determine the function of lamstatin, human primary lymphatic endothelial cells (HMVEC-LLy cells) were exposed to various concentrations of lamstatin and an MTT assay was performed. As a comparison, commercially available tumstatin was used. Specifically, to assess cell viability 4×10^3 HMVEC-LLy cells were seeded per well in 100 μl complete EBM-2 media (with bullet kit, Lonza) and incubated for 2 hrs at 37° C., 5% CO2. After this period lamstatin, tumstatin and respective vehicles (1 nM EDTA, pH 3.0) were prepared in complete EBM-2 as serial dilutions in a separate plate and added. Cells were grown for 24 hrs before MTT (1 mg/mL in PBS) was added. After 6 h of further incubation cells were lysed overnight with 10% SDS/0.01 M HCl and measured the following day in a plate reader at 570 nm.
# The inventors isolated lung cells from a LAM patient, which cells originated from the LAM nodules. These cells were termed according to their location within the nodule, as intermediate layer in the nodule, centre cells and outer nodule cells. These cells were then treated with lamstatin or tumstatin and cell viability measured after 72 hrs. The MTT viability assay was performed as described above in Example 1.
# [4] = lamstatin 10 or 100 μg/mL, CP17 5 or 50 μA, vs vehicle
molecule,measurement,setting,value
"lamstatin: NC1 domain of the α5 chain of collagen type IV; human amino acid sequence SEQ ID NO:1; recombinant (protein, listed as Homo sapiens) GFLITRHSQTTDAPQCPQGTLQVYEGFSLLYVQGNKRAHGQDLGTAGSCLRRFSTMPFMFCNINNVCNFASRNDYSYWLSTPEPMPMSMQPLKGQSIQPFISRCAVCEAPAVVIAVHSQTIQIPHCPQGWDSLWIGYSFMMHTSAGAEGSGQALASPGSCLEEFRSAPFIECHGRGTCNYYANSYSFWLATVDVSDMFSKPQSETLKAGDLRTRISRCQVCMKRT",lymphatic vessel formation around the tumour (visual inspection),[1]; 10 μg/mL,reduction in the number of lymphatic vessels and a dilation of lymphatic vessels
same,PECAM staining in the vicinity of tumour cells,"[1]; 10 μg/mL or 100 μg/mL, 12 days",no obvious reduction
same,lymphatic vessel formation around the tumour (visual inspection),"[1]; 100 μg/mL, compared to 10 μg/mL",further reduction in lymphatic vessel network density
same,development of blood vasculature around the tumour,[1]; 10 and 100 μg/mL,no discernable effect
same,reduction of mean intensity of LyVe-1 staining compared to vehicle only,"[1]; both 10 μg/mL and 100 μg/mL, whole mount ears, 12 days",approximately 60%
same,number of branches of lymphatic vessels,[1]; [4],significantly reduced
same,number of loops of lymphatic vessels,[1]; [4],significantly reduced
same,migration towards a VEGFD gradient,HMVEC-LLy cells [2],10000 RFU
same,"time required to reach a threshold cell index of 1, compared with vehicle control",HMVEC-LLy cells [3]; 10 μg/mL,double
same,cell attachment,"HMVEC-LLy cells [3]; after 55 min of treatment, various concentrations",reduction in cell attachment
same,reduction of cell viability (MTT),LAM nodule cells,effective in reducing cell viability of all nodule cell types at both high (e.g. 10 μg/mL) and low (1.25-2.5 μg/mL) concentrations
